Values belong to the binder of their own block, whether it stands above or below them.
Assays:
Test in all cases: cell-based or functional assay
M2Δi3R (human) = M2Δi3R (human) (UniProt P08172)
β2AR365N (human) = β2AR365N (human) (UniProt P07550)
hβ1AR (human) = hβ1AR (human) (UniProt P08588)
hβ1AR (human), sequence (P08588 other isoform, or with tags, fused parts or gaps): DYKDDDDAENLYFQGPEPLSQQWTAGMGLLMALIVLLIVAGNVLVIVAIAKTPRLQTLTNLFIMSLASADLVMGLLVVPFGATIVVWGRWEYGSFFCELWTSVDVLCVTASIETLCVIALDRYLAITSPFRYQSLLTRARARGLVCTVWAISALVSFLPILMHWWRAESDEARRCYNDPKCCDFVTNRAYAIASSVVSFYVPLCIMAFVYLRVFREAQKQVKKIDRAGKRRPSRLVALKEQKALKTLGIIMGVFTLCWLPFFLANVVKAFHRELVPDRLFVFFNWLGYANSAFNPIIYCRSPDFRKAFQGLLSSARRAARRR

M2Δi3R (human), sequence (P08172 other isoform, or with tags, fused parts or gaps mutant limits assumed): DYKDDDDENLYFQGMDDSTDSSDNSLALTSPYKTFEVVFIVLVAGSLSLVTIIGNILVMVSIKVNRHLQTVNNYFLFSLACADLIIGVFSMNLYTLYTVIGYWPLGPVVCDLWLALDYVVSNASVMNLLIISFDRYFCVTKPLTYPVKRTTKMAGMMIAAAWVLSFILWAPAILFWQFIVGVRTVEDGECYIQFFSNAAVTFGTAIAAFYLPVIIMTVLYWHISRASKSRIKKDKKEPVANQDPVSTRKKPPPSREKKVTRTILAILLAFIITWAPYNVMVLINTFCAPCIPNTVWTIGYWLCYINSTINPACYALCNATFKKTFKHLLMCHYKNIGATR

IC50 ratio, carbachol: IC50 M2Δi3R / IC50high M2Δi3R-Nb9-1 fusion ([3H]-NMS competition, Sf9 membranes) (M2Δi3R (human)): 67.2 | IC50 ratio, oxotremorine M: IC50 M2Δi3R / IC50high M2Δi3R-Nb9-1 fusion (M2Δi3R (human)): 316
B1: Nb9-1 (VHH)
VHH: QVQLQESGGGLVQAGGSLRLSCAASGHTFSSARMYWVRQAPGKEREFVAAISRSGFTYSADSVKGRFTISRDIANNTVYLQMNSLQPEDTAIYTCYAAYLDEFYNDYTHYWGLGTQVTVSS

IC50 ratio, ICI-118,551: β2AR365N-Nb69 mock fusion / β2AR365N-Nb71 fusion (β2AR365N (human)): 0.01 | IC50 ratio, alprenolol: β2AR365N-Nb69 mock fusion / β2AR365N-Nb71 fusion (β2AR365N (human)): 1.5 | IC50 ratio, carvedilol: β2AR365N-Nb69 mock fusion / β2AR365N-Nb71 fusion (β2AR365N (human)): 0.6 | IC50 ratio, epinephrine: β2AR365N-Nb69 mock fusion / β2AR365N-Nb71 fusion (β2AR365N (human)): 2030 | IC50 ratio, isoproterenol: β2AR365N-Nb69 mock fusion / β2AR365N-Nb71 fusion (β2AR365N (human)): 80 | IC50 ratio, salbutamol: β2AR365N-Nb69 mock fusion / β2AR365N-Nb71 fusion (β2AR365N (human)): 454
B2: Nb71 (VHH)
VHH: QVQLQESGGGLVQPGGSLRLSCAASGFAFSSYELRWYRQAPGKQHELVAGITTGGNTYYADSVKGRFTISRDNAKNTVYLQMSNLRPEDTAVYACNANWDLLSDYWGQGTQVTVSS

IC50 ratio, ICI-118,551: IC50 hβ1AR-Nb69 / IC50high hβ1AR-Nb80 fusion (hβ1AR (human)): 0.077 | IC50 ratio, alprenolol: IC50 hβ1AR-Nb69 / IC50high hβ1AR-Nb80 fusion (hβ1AR (human)): 0.988 | IC50 ratio, epinephrine: IC50 hβ1AR-Nb69 / IC50high hβ1AR-Nb80 fusion ([3H]-DHA competition, Sf9 membranes) (hβ1AR (human)): 68.7 | IC50 ratio, ICI-118,551: β2AR365N-Nb69 mock fusion / β2AR365N-Nb80 fusion (β2AR365N (human)): 0.023 | IC50 ratio, alprenolol: β2AR365N-Nb69 mock fusion / β2AR365N-Nb80 fusion (β2AR365N (human)): 4 | IC50 ratio, carvedilol: non-fused β2AR365N / β2AR365N-Nb80 fusion (β2AR365N (human)): 0.22 | IC50 ratio, carvedilol: β2AR365N-Nb69 mock fusion / β2AR365N-Nb80 fusion (β2AR365N (human)): 0.4 | IC50 ratio, epinephrine: non-fused β2AR365N / β2AR365N-Nb80 fusion (β2AR365N (human)): 1380 | IC50 ratio, epinephrine: β2AR365N-Nb69 mock fusion / β2AR365N-Nb80 fusion ([3H]-DHA competition; Nb fused to the receptor) (β2AR365N (human)): 2070 | IC50 ratio, isoproterenol: β2AR365N-Nb69 mock fusion / β2AR365N-Nb80 fusion (β2AR365N (human)): 670 | IC50 ratio, salbutamol: β2AR365N-Nb69 mock fusion / β2AR365N-Nb80 fusion (β2AR365N (human)): 373 | apparent potency shift, compound 9: IC50 β2AR365N-Nb69 / IC50 β2AR365N-Nb80 fusion (β2AR365N (human)): 71 | apparent potency shift, compound 10: IC50 β2AR365N-Nb69 / IC50 β2AR365N-Nb80 fusion (β2AR365N (human)): 94 | apparent potency shift, epinephrine: Nb80 fusion compared to Nb69 fusion (Example 19 experiment) (β2AR365N (human)): 855 | apparent potency shift, fragment CC56213: IC50 β2AR365N-Nb69 / IC50 β2AR365N-Nb80 fusion (β2AR365N (human)): 22 | apparent potency shift, isoprotenerol: Nb80 fusion compared to Nb69 fusion (Example 19 experiment) (β2AR365N (human)): 155 | concentration of exogenous Nb80 at which the epinephrine IC50 of non-fused β2AR365N equals that of the fusion (β2AR365N (human)): 5 µM | effective intramolecular concentration of Nb80 in the β2AR365N-Nb80 fusion (β2AR365N (human)): > 500 nM | epinephrine potency shift: IC50 of the mock fusion / IC50 of non-fused β2AR365N with 500 nM exogenous Nb80 (β2AR365N (human)): 87 fold | epinephrine potency shift: IC50 of the mock fusion / IC50 of the β2AR365N-Nb80 fusion (Nb80 fused to the receptor) (β2AR365N (human)): 534 fold | molar excess of exogenous Nb80 over β2AR needed to match the fusion (β2AR365N (human)): 12500 fold
B3: Nb80 (VHH)
VHH: QVQLQESGGGLVQAGGSLRLSCAASGSIFSINTMGWYRQAPGKQRELVAAIHSGGSTNYANSVKGRFTISRDNAANTVYLQMNSLKPEDTAVYYCNVKDYGAVLYEYDYWGQGTQVTVSS

Source: patent publication US20150376261A1
